The values that follow are results of earlier work, collected in paper PMC5257249.

A word on the Kd: it is the constant that tells how readily two partners part at equilibrium.

Like-named read-outs stand apart in the source and are kept apart here.

Data set [1] deals with MMOH (Methylococcus capsulatus) (UniProt P22869). Nature of the data set: fluorescence anisotropy. (In general: Fluorescence polarisation rises when a labelled molecule tumbles more slowly, as on binding a larger partner.)
For data set [2] the target is unchanged. The experiment in a line: fluorescence anisotropy. The source holds these as a separate data set.

UniProt P22869, sequence (P22869 whole entry, chain 1 of 3): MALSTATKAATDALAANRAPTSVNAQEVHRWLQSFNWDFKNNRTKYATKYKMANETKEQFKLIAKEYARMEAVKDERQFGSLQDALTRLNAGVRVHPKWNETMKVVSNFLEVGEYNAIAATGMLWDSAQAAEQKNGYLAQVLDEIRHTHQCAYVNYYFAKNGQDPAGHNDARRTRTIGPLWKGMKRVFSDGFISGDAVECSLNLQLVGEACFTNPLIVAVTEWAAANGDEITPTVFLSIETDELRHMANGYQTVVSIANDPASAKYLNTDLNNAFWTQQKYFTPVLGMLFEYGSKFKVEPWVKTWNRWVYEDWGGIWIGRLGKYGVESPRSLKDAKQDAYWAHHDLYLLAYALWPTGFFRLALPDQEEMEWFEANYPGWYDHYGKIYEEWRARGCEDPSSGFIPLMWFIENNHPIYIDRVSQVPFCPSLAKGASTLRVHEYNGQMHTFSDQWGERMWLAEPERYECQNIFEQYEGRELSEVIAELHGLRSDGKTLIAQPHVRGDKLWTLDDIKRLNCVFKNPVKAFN
UniProt P22869, sequence (P18798 2-389, chain 2 of 3, further chain): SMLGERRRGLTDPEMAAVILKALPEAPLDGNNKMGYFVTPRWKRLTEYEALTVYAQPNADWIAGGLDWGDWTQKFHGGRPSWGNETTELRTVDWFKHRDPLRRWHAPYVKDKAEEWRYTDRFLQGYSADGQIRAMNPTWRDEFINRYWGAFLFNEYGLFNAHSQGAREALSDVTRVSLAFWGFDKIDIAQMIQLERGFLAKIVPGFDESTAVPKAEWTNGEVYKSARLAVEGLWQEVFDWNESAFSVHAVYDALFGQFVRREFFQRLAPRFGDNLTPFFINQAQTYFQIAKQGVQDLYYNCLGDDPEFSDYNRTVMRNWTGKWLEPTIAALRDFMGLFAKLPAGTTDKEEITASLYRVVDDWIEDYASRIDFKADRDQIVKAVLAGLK
UniProt P22869, sequence (P11987 2-170, chain 3 of 3, further chain): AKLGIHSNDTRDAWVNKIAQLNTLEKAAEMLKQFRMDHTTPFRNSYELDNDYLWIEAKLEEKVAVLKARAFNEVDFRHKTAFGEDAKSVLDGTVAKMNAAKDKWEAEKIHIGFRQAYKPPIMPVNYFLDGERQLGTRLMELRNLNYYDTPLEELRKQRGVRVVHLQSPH

Turning to MMOB (from UniProt P18797), the results for the dissociation constant Kd in data set [1] and in data set [2] were 170 nM and 550 nM, respectively.
